# B1: B31 (chimeric antibody) (antibody, human IgG1, kappa, V domains shown)
# VH: EVMLVESGGGLVKPGGSLKLSCAASGFTFSRYAMSWVRQTPEKRLEWVASISRGGSTYYPDSVKGRFTISRDNARNILYLQMSSLRSEDTAMYYCASYFGNYDAMDYWGQGTSVTVSS
# VL: DIQMNQSPSSMYASLGERVTITCKASQDINNYVSWFQQKPGKSPKTLIYRANRLVDGVPSRFSGSGSGQDYSFTISSLEYEDMGIYYCLQFDEFPYTFGGGTKLEIKR
# notes: ExpiCHO expression
# Assays:
# [1] = target: T1, MusROR1-His (mouse ROR1 ECD AA30-406 with C-terminal His tag) (mouse, UniProt Q9Z139 30-406); experiment: ELISA, MusROR1-His coated at 2 µg/mL, goat anti-human Fc-HRP, OD450
# T1 construct: range 30-406; Expressed in HEK293; also called mouse ROR1 antigen protein; not shown: C-terminal His tag
# Procedure: (§1) 96-well ELISA plate was coated with 2 μg/mL MusROR1-His (30 μL/well) at 4° C. overnight. The next day, the plate was washed three times with PBST and then blocked with 5% skim milk for 2 h. […] After washing with PBST for three times, the secondary antibody Goat-anti-human Fc-HRP (abcam, ab97225) was added and incubated for 1 h. After incubation, the plate was washed with PBST for 6 times and TMB (SurModics, TMBS-1000-01) was added for color development. According to the color development results, 2 M HCl was added to terminate the reaction, and the data were read at OD450 using a microplate reader (Molecular Devices, SpecterMax 190).
# [2] = target: T2, huROR2-His (human ROR2 ECD AA34-403 with C-terminal His tag) (human, UniProt Q01974 34-403); experiment: ELISA, huROR2-His coated at 2 µg/mL, goat anti-human Fc-HRP, OD450
# T2 construct: range 34-403; Expressed in HEK293; also called human ROR2 antigen protein; not shown: C-terminal His tag
# Procedure: as §1, with “huROR2-His” for “MusROR1-His”, “TMBS-1000-0)” for “TMBS-1000-01)”
# [3] = target: T3, huROR1-His (human ROR1 ECD AA30-406 with C-terminal His tag, made in house) (human, UniProt Q01973 30-406); experiment: ELISA, huROR1-His coated plate, goat anti-human Fc-HRP, OD450
# T3 construct: range 30-406; Expressed in HEK293; also called antigen protein huROR1-His; not shown: C-terminal His tag
# [4] = target: T3, huROR1-His (human ROR1 ECD AA30-406 …); experiment: ELISA, huROR1-His coated at 2 µg/mL, goat anti-human Fc-HRP, OD450
# Procedure: as §1, with “huROR1-His” for “MusROR1-His”
# [5] = target: T4, human ROR1 on cells (full-length human ROR1 on huROR1-HEK293 cells; human ROR1 on A549 and HT-29 tumor cells) (human, UniProt Q01973 30-937); experiment: flow cytometry (FACS) on A549 tumor cells, anti-human IgG-Fc secondary antibody, MFI
# T4 construct: whole, on cells; also called hROR1-HEK293T; A549 tumor cells
# Procedure: (§2) In this example, the binding activity of the antibody was evaluated using two types of cells, huROR1-HEK293 cells over-expressing human ROR1 and A549 tumor cells.
# (§3) The specific method was as follows: huROR1-HEK293 cells or A549 cells in the logarithmic growth phase were prepared to a single-cell suspension, the density was adjusted to 1×10⁶ cells/mL, then 100 μL/well cells were added to a 96-well round-bottom plate, centrifuged at 4° C., 300 g, and the supernatant was removed. […] After the incubation, the cell mixture was washed three times and then 100 μL of 1:300 diluted secondary antibody Goat F(ab′)₂ Anti-Human IgG-Fc (abcam, ab98596) was added. The mixture was incubated at 4° C. in the dark for 30 min. After washing three times, the cells were detected by flow cytometry (Beckman, CytoFLEX AOO-1-1102).
# [6] = target: T3, huROR1-His (human ROR1 ECD AA30-406 …); experiment: Gator (BLI) Advanced Kinetics; antibody 30 nM, huROR1-His 480-7.5 nM
# Procedure: First, Q buffer was prepared with PBS (10 mM pH7.4) (IgG-free, purchased from Jackson ImmunoResearch Lab)+0.02% Tween 20 (purchased from thermo)+0.2% BSA (purchased from source culture), and the stock solution of the test antibody was diluted with the prepared Q buffer to a working solution with a final concentration of 30 nM, the stock solution of the antigen protein huROR1-His was prepared with Q buffer into a working solution with multiple dilutions (480, 240, 120, 60, 30, 15, 7.5 nM), and detection and analysis was then performed with Gator instrument and its accompanying software, selecting the Advanced Kinetics experimental mode is used.
# [7] = target: T3, huROR1-His (human ROR1 ECD AA30-406 …); experiment: ELISA, huROR1-His coated plate, goat anti-human Fc-HRP, OD450; remark: listed apart in the source
# [8] = target: T3, huROR1-His (human ROR1 ECD AA30-406 …); experiment: as above; remark: listed apart in the source
# [9] = target: T4, human ROR1 on cells (full-length human …); experiment: flow cytometry (FACS) on huROR1-HEK293 cells, anti-human IgG-Fc secondary antibody, MFI
# Procedure: as §2, §3
# [10] = target: T3, huROR1-His (human ROR1 ECD AA30-406 …); experiment: Biacore T200 SPR; huROR1-His amine-coupled (~75 RU), antibody 4 and 20 nM as analyte, 1:1 Langmuir fit
# Procedure: Protein coupling: The huROR1-His protein produced in Example 1.2 was diluted to 5.6 μg/mL with NaAc buffer, pH 5.0, the flow rate was set to 10 μL/min, the chip activation time was set to the default value of 420 s with a mixture of 1-ethyl-(3-dimethylaminopropyl)carbodiimide (EDC) and N-hydroxysuccinimide (NHS), and the antigen protein huROR1-His was fixed to a level of about 75 RU using a coupling mode with a preset coupling amount, and the activated groups that were not bound to the test sample were blocked with ethanolamine.
# Sample test conditions: PBS buffer (pH 7.4) containing 0.05% Tween-20 was used as the running buffer, and the running buffer was used as the control test sample. A series of antibody concentrations (4 nM, 20 nM) were set. During sample analysis, the flow rate was set to 30 μL/min, the binding time was 120 s, and the dissociation time was 360 s. After the dissociation was completed, 10 mM Gly-HCl (pH 2.0) was used for regeneration for 20 s to completely remove the antibody bound to the ligand.
# Parameter fitting: The experiment was run in multiple cycles, with the response signal taking the analysis time as the horizontal axis and the response value as the vertical axis. After double reference subtraction, the obtained data were fitted by BiAcore T200 analysis software. The fitting model adopted was 1:1 Langmuir binding model, and Affinity metrics such as the binding dissociation constant were determined.
# T3 sequence (Q01973 30-406 limits assumed): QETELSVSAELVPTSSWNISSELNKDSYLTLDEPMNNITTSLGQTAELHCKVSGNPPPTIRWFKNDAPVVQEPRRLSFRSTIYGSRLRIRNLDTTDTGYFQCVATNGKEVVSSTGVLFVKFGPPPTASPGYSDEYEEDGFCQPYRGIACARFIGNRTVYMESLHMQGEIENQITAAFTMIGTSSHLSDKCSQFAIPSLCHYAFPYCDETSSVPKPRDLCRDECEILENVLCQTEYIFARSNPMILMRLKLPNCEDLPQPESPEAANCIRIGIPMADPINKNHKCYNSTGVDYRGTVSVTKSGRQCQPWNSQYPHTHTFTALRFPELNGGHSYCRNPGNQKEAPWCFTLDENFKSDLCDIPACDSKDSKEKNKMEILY
# T4 sequence (Q01973 30-937): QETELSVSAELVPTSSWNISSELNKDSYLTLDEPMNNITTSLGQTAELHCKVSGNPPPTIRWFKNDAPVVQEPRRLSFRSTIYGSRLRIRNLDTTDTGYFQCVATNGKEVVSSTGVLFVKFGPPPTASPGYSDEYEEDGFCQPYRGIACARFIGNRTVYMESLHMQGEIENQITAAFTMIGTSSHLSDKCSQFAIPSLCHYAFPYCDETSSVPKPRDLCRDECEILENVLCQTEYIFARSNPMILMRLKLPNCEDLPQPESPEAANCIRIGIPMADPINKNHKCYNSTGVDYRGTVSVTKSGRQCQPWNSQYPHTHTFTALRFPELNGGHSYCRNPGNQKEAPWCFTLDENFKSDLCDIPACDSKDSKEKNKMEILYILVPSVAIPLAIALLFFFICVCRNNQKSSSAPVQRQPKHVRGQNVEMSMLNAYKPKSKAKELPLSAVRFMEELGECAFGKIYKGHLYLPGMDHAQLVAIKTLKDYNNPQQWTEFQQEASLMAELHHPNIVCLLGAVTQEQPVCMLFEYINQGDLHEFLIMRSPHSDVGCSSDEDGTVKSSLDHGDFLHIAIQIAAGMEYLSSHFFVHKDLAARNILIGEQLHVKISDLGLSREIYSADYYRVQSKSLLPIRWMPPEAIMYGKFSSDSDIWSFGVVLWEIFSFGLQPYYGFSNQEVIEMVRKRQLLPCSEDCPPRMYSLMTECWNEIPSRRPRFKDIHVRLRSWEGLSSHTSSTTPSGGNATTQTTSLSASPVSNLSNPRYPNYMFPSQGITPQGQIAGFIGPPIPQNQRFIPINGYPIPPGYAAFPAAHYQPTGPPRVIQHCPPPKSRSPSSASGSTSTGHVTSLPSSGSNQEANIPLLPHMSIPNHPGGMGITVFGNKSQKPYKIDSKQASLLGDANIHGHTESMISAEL
# T2 sequence (Q01974 34-403 limits assumed): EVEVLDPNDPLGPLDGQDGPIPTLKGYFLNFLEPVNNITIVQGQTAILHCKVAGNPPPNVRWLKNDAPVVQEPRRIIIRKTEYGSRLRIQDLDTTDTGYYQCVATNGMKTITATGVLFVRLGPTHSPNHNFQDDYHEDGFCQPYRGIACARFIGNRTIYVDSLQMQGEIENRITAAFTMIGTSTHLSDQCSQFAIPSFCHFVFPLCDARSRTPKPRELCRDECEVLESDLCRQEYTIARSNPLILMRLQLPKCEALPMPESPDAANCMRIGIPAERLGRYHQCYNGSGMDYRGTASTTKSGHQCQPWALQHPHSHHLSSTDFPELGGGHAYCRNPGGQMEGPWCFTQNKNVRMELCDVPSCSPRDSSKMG
# T1 sequence (Q9Z139 30-406 limits assumed): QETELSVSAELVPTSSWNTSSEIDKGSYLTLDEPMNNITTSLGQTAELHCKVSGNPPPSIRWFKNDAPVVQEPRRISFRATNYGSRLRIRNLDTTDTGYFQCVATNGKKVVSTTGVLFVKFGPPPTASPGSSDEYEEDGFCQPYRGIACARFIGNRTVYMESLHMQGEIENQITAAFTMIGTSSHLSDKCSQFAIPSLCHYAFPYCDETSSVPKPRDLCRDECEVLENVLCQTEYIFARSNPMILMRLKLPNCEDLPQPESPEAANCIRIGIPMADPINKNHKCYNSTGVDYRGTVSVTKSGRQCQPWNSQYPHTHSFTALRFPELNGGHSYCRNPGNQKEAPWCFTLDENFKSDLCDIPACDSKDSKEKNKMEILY
binder,measurement,setting,value
B1,binding result,[1],no binding (tested: 1 µg/mL)
same,binding result,[2],no binding (tested: 1 µg/mL)
same,EC50,[3],2.12 ng/mL
same,EC50,[4],5.49 ng/mL
same,EC50 (read off the curve),[5],~5 ng/mL
same,Kd,[6],5.67 nM
same,koff,[6],0.00217 s⁻¹
same,kon,[6],383000 M⁻¹ s⁻¹
same,EC50,[7],1.63 ng/mL
same,EC50,[8],1.92 ng/mL
same,EC50 (read off the curve),[9],~80 ng/mL
same,Kd,[10],1.25 nM
same,koff,[10],0.000817 s⁻¹
same,kon,[10],653000 M⁻¹ s⁻¹
same,t 1/2,[10],14.1 min
